The source of these data is article PMC3556581 (Nature structural & molecular biology, 2009).

Experiment [1] deals with parental cyclophilin A (CypA) (rhesus macaque; identical in sequence …, UniProt P62940 1-165). As to the kind of experiment: ITC. On the technique in general: In ITC the heat of successive injections is recorded.
The target of experiment [2] is CypA domain of rhesus macaque TRIMCyp (RhTC CypA) (rhesus macaque, UniProt P62940 1-165, D66N | R69H). As to the kind of experiment: ITC.

B1: HIV-2 N-terminal capsid (CA^N) domain (domain or fragment)
chain: not shown
What is called Kd is the free concentration of one partner at which half of the binding sites on the other are occupied at equilibrium, for simple one-to-one binding. With B1, the Kd in experiment [1] was found to be 91 µM. For the same molecule, in experiment [2], binding was characterised by a dissociation constant (Kd) of 3000 nM and the dH was -1160 cal/mol.
